The numbers were not newly measured in article PMC5576018, which cites them from elsewhere.

This data set concerns the target CSL (Homo sapiens) (UniProt Q06330).
Sequence of UniProt Q06330 (Q06330 whole entry): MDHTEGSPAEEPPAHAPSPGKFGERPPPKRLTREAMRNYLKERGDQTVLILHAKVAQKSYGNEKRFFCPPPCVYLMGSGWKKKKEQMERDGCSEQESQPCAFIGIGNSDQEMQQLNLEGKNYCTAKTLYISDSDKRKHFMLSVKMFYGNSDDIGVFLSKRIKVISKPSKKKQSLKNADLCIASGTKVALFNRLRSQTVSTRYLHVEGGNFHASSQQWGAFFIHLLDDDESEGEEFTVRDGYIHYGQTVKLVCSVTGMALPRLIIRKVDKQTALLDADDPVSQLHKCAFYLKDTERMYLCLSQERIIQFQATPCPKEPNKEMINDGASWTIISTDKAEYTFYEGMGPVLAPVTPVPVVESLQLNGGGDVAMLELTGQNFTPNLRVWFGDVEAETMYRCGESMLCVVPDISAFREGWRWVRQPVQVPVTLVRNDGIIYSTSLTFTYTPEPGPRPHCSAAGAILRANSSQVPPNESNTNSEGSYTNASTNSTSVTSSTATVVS

As for Notch RAM RAM (from UniProt P46531), the Kd was 0.022 µM.

The Kd is a measure of binding affinity in units of concentration.
